These results are taken from patent EP4702992A1, “ANTIBODY-DRUG CONJUGATE” (priority 2023, dated 2024).

Test [1] deals with DLL3 on the surface of NCI-H209, SHP77, NCI-H526, NCI-H82 and NCI-H69 cells (human) (UniProt Q9NYJ7). The test is described as follows: flow cytometry, D-ADC55-1-8 (15 µg/mL) on SHP77 cells, anti-human IgG Alexa Fluor 488.
For test [2] the target is unchanged. The test is described as follows: flow cytometry, D-ADC55-1-8 (15 µg/mL) on NCI-H82 cells, anti-human IgG Alexa Fluor 488. (In general: Flow cytometry measures light scatter and fluorescence of single cells or particles in a stream.)
Test [3] shares this target. The test is described as follows: flow cytometry, D-ADC55-1-8 (15 µg/mL) on NCI-H209 cells, anti-human IgG Alexa Fluor 488.
Test [4] has the same target. The test is described as follows: flow cytometry, D-ADC55-1-8 (15 µg/mL) on NCI-H526 cells, anti-human IgG Alexa Fluor 488.
The target is the same in test [5]. The test is described as follows: flow cytometry, D-ADC55-1-8 (15 µg/mL) on NCI-H69 cells, anti-human IgG Alexa Fluor 488.

Sequence of DLL3 on the surface of NCI-H209, SHP77, NCI-H526, NCI-H82 and NCI-H69 cells (human) (Q9NYJ7 27-618): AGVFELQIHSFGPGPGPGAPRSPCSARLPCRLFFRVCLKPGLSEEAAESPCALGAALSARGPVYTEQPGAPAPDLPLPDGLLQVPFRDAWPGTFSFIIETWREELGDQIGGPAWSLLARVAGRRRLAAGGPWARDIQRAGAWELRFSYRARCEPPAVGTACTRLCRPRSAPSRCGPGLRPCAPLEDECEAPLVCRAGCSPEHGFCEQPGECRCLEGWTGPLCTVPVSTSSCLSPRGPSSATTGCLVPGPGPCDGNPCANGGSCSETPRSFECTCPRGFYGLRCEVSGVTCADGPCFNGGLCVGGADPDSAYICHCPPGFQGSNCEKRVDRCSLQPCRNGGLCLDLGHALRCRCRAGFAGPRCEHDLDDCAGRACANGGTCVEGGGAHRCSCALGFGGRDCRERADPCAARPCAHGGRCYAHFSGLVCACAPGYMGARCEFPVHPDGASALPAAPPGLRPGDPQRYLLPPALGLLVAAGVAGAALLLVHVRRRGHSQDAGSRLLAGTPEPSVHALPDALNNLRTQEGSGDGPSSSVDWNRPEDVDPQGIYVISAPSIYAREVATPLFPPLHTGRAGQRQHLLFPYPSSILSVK

B1: D-ADC55-1-8 (antibody, human IgG1, kappa, L234A L235A, V domains shown)
VH: QVQLVQSGAEVKKPGASVKVSCKASGYTFTDYYMKWVRQAPGQRLEWMGAFNLNNGDTFYNQKFKGRVTITRDTSASTAYMELSSLRSEDTAVYYCARDVYGYGDYWGQGTSVTVSS
VL: DIVMTQSPDSLAVSLGERATINCRASKSVSTSGYSYMHWYQQKPGQPPKLLIYLASNLDSGVPDRFSGSGSGTDFTLTISSLQAEDVAVYYCQHSRELPYTFGGGTKLEIKR
modifications: linker-drug LD55-1 (exatecan payload) conjugated to sulfhydryls of reduced interchain disulfide cysteines; average DAR 8.0 per antibody
For the molecule B1, the DLL3+ % in test [1] came to 35.8%; in test [2], 11.2%; in test [3], 44.4%; in test [4] it was 29.1%; in test [5] it was 5.29%. In addition, the Experimental well: negative control ratio in test [1] came to 3.23; in test [2], 5.02; in test [3], 7.73; in test [4], 3.73; in test [5] it was 3.03.
